Measured values as given in the supplement of paper PMC9112550, “Optimization of the antimicrobial peptide Bac7 by deep mutational scanning” (BMC Biology, 2022).

Tested on: Escherichia coli TOP10
Assay: shrunken log2 fold change of peptide-encoding DNA abundance (4.5 h post-induction vs induction); higher = less antimicrobial activity (less host growth inhibition)
Settings: time post-induction: 4.5 h; library: site-saturation at positions 5, 18, 19, 20
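Also: peptides expressed intracellularly from a pBAD plasmid library in pooled LB shake-flask culture, induced with 0.3% L-arabinose, DNA abundance read by NGS, three biological replicates, DESeq2 with apeglm shrinkage.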

Row | Sequence | shrunken log2 fold change
1 | RRIRERPPRLPRPRPRPKQDPRP | -0.252
2 | RRIRIRPPRLPRPRPRPWQAPRP | -0.115
3 | RRIRARPPRLPRPRPRPGGPPRP | 0.294
4 | RRIRHRPPRLPRPRPRPPKDPRP | 0.105
5 | RRIRLRPPRLPRPRPRPKQWPRP | 0.176
6 | RRIRKRPPRLPRPRPRPYGFPRP | -0.294
7 | RRIRWRPPRLPRPRPRPWSVPRP | -0.174
8 | RRIRNRPPRLPRPRPRPCRTPRP | -0.124
9 | RRIRYRPPRLPRPRPRPPMTPRP | -0.456
10 | RRIRFRPPRLPRPRPRPITMPRP | -0.503
11 | RRIRYRPPRLPRPRPRPLEMPRP | -0.0768
12 | RRIRYRPPRLPRPRPRPNWKPRP | 0.138
13 | RRIRYRPPRLPRPRPRPEIQPRP | 0.0356
14 | RRIRKRPPRLPRPRPRPCGAPRP | 0.45
15 | RRIRPRPPRLPRPRPRPNKDPRP | -0.534
16 | RRIRIRPPRLPRPRPRPVIYPRP | -0.695
17 | RRIRTRPPRLPRPRPRPRGNPRP | 0.0399
18 | RRIRQRPPRLPRPRPRPNDFPRP | 0.0233
19 | RRIRCRPPRLPRPRPRPPVCPRP | 0.222
20 | RRIRMRPPRLPRPRPRPKPKPRP | 0.476
21 | RRIRCRPPRLPRPRPRPYIEPRP | -1.03
22 | RRIRLRPPRLPRPRPRPSNMPRP | -0.406
23 | RRIRIRPPRLPRPRPRPDHTPRP | -0.25

Row | Sequence | shrunken log2 fold change
24 | RRIRQRPPRLPRPRPRPTVNPRP | -0.0853
25 | RRIRYRPPRLPRPRPRPNGSPRP | -0.289
26 | RRIRPRPPRLPRPRPRPQFPPRP | 0.0341
27 | RRIRSRPPRLPRPRPRPGWYPRP | -0.118
28 | RRIRKRPPRLPRPRPRPKVNPRP | 0.0581
29 | RRIRQRPPRLPRPRPRPHFLPRP | -0.218
30 | RRIRPRPPRLPRPRPRPNLDPRP | 0.109
31 | RRIRYRPPRLPRPRPRPWRYPRP | 0.026
32 | RRIRLRPPRLPRPRPRPCCPPRP | -0.196
33 | RRIRERPPRLPRPRPRPDKFPRP | -0.466
34 | RRIRQRPPRLPRPRPRPFFMPRP | -0.129
35 | RRIRSRPPRLPRPRPRPPDPPRP | 0.472
36 | RRIRYRPPRLPRPRPRPYSDPRP | -0.237
37 | RRIRSRPPRLPRPRPRPVQQPRP | -0.00468
38 | RRIRARPPRLPRPRPRPAEFPRP | 0.304
39 | RRIRWRPPRLPRPRPRPVAAPRP | 0.855
40 | RRIRSRPPRLPRPRPRPCDLPRP | -0.144
41 | RRIRKRPPRLPRPRPRPIAPPRP | 0.718
42 | RRIRVRPPRLPRPRPRPEPLPRP | 0.204
43 | RRIRRRPPRLPRPRPRPWDDPRP | -0.0642
44 | RRIRDRPPRLPRPRPRPPCMPRP | -0.317
45 | RRIRQRPPRLPRPRPRPMCLPRP | -0.184
46 | RRIRFRPPRLPRPRPRPFRIPRP | -0.687

Row | Sequence | shrunken log2 fold change
47 | RRIRGRPPRLPRPRPRPYGWPRP | -0.0363
48 | RRIRWRPPRLPRPRPRPCKMPRP | -0.184
49 | RRIRLRPPRLPRPRPRPCRHPRP | -0.601
50 | RRIRKRPPRLPRPRPRPIQSPRP | -0.0332
51 | RRIRDRPPRLPRPRPRPNGTPRP | 0.00868
52 | RRIRCRPPRLPRPRPRPKPPPRP | 0.931
53 | RRIRNRPPRLPRPRPRPLQRPRP | 0.0374
54 | RRIRERPPRLPRPRPRPTSGPRP | 0.0416
55 | RRIRPRPPRLPRPRPRPHAYPRP | -0.317
56 | RRIRTRPPRLPRPRPRPQTYPRP | -0.0726
57 | RRIRKRPPRLPRPRPRPRGNPRP | 0.258
58 | RRIRNRPPRLPRPRPRPFGTPRP | -0.214
59 | RRIRIRPPRLPRPRPRPPLYPRP | -0.331
60 | RRIRYRPPRLPRPRPRPQVVPRP | -0.166
61 | RRIRVRPPRLPRPRPRPPRIPRP | 0.116
62 | RRIRLRPPRLPRPRPRPDWQPRP | -0.0564
63 | RRIRRRPPRLPRPRPRPLGRPRP | -0.143
64 | RRIRPRPPRLPRPRPRPGCCPRP | 0.343
65 | RRIRSRPPRLPRPRPRPHWHPRP | -0.124
66 | RRIRMRPPRLPRPRPRPNQVPRP | -0.217
67 | RRIRARPPRLPRPRPRPLHDPRP | 0.341
68 | RRIRCRPPRLPRPRPRPMSNPRP | -0.64
69 | RRIRNRPPRLPRPRPRPCLEPRP | 0.000258

Row | Sequence | shrunken log2 fold change
70 | RRIRLRPPRLPRPRPRPCSGPRP | 0.0583
71 | RRIRPRPPRLPRPRPRPRNSPRP | 0.0183
72 | RRIRSRPPRLPRPRPRPKQHPRP | 0.235
73 | RRIRYRPPRLPRPRPRPTEAPRP | 0.0329
74 | RRIRKRPPRLPRPRPRPCPWPRP | 0.332
75 | RRIRNRPPRLPRPRPRPTLPPRP | 0.149
76 | RRIRVRPPRLPRPRPRPTPAPRP | 0.448
77 | RRIRHRPPRLPRPRPRPINNPRP | -0.7
78 | RRIRNRPPRLPRPRPRPANLPRP | -0.342
79 | RRIRDRPPRLPRPRPRPWLDPRP | 0.0593
80 | RRIRQRPPRLPRPRPRPHCGPRP | 0.0588
81 | RRIRFRPPRLPRPRPRPMLFPRP | -0.0947
82 | RRIRIRPPRLPRPRPRPNMRPRP | -0.374
83 | RRIRFRPPRLPRPRPRPEMNPRP | -0.253
84 | RRIRKRPPRLPRPRPRPKVHPRP | 0.243
85 | RRIRKRPPRLPRPRPRPWNSPRP | 0.0199
86 | RRIRFRPPRLPRPRPRPGNWPRP | 0.724
87 | RRIRKRPPRLPRPRPRPKKEPRP | 0.00375
88 | RRIRPRPPRLPRPRPRPFKYPRP | -0.0171
89 | RRIRARPPRLPRPRPRPGVSPRP | 0.559
90 | RRIRDRPPRLPRPRPRPCKYPRP | 0.0244
91 | RRIRDRPPRLPRPRPRPFSNPRP | -0.0771
